Experimental data taken from patent EP3250590B1 (Academia Sinica, dated 2021).

Target: T1, BSA (bovine, UniProt P02769 25-607)
T1 construct: also called BSA control protein; bovine serum albumin
Test: ELISA, intact IgG on coated BSA

T1 sequence (P02769 25-607 limits assumed): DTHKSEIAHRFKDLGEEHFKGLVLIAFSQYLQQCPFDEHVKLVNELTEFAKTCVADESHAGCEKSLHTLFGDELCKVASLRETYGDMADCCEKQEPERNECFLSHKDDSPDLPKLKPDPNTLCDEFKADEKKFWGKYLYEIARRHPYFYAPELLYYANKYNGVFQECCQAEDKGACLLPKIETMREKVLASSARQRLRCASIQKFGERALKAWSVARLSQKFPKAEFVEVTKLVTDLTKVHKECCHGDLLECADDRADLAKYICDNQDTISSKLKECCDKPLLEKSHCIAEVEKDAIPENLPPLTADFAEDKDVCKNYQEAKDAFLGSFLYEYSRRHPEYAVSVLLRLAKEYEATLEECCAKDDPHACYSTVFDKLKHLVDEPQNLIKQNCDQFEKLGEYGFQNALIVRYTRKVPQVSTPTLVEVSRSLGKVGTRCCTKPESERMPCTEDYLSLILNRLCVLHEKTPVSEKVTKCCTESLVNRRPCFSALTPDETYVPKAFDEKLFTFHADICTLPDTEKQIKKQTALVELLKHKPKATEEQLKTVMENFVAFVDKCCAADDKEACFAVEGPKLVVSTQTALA

binding result | Binder
no binding | 3rd humanized MC41 IgG (antibody, V domains shown, also called 3rd-hMC41) VH: QVQLKESGPGLVAPSKTLSLTCTVSGFSLSSQGVYWIRQPPGKGLEWIGAIWAGGSTNYNSALMSRLSISKDNSKSQVFLKMNSLQTDDTAMYYCARVDGYRGYNMDYWGQGTSVTVSS VL: ENVLTQSPAIMSATPGEKVTMTCSASSSVSYMHWYQQKSSTSPKLWIYDTSKLASGVPGRFSGSGSGNSYTLTISSMEAEDVATYYCFQGSGYPLTFGAGTKLEIKR
no binding | chimeric MC41 (antibody, V domains shown, Chimeric intact IgG of murine MC41; also called chMC41) VH: QVQLKESGPGLVAPSKSLSITCTVSGFSLSSQGVYWVRQPPGKGLEWLGAIWAGGSTNYNSALMSRLSISKDNSKSQVFLKMNSLQTDDTAMYYCARVDGYRGYNMDYWGQGTSVTVSS VL: ENVLTQSPAIMSASPGEKVTMTCSASSSVSYMHWYQQKSSTSPKLWIYDTSKLASGVPGRFSGSGSGNSYSLTISSMEAEDVATYYCFQGSGYPLTFGAGTKLELKR
no binding | 2nd humanized MC41 IgG (antibody, V domains shown, also called hMC41; humanized 2nd IgG) VH: QVQLKESGPGLVAPSKTLSLTCTVSGFSLSSQGVYWIRQPPGKGLEWIGAIWAGGSTNYNSALMSRLSISKDNSKSQVFLKMNSLQTDDTAMYYCARVDGYRGYNMDYWGQGTLVTVSS VL: ENVLTQSPAIMSATPGEKVTMTCSASSSVSYLHWYQQKSSTSPKLWIYDTSKLASGVPGRFSGSGSGNSYTLTISSMEAEDVATYYCFQGSGYPLTFGAGTKLEIKR
